This note sets out measurements from publication PMC6352652 (2018).

The target in assay [1] is T1, FBG domain of rat tenascin-C (rat).
T1 chain: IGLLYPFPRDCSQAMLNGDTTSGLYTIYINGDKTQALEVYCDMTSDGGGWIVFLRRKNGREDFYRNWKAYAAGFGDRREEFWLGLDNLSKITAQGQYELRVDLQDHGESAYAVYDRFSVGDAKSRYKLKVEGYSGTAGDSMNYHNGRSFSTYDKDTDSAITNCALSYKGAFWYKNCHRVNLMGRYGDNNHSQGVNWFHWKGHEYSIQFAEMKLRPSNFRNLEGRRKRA
The experiment in a line: SPR; 37°C.

For assay [2], the target named is T2, fibrinogen-like globe (FBG) domain of human tenascin-C (human, UniProt P24821 1975-2201).
T2 chain: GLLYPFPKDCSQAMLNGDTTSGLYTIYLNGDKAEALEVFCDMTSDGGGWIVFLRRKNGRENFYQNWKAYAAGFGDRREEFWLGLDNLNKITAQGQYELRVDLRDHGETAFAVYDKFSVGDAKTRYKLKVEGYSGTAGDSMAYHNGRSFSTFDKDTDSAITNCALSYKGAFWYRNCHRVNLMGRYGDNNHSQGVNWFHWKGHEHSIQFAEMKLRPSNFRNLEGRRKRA
The experiment in a line: SPR; 37°C.

B1: monoclonal antibody C3 (antibody, V domains shown)
VH: QVQLVESGGGLVQPGRSLRLSCAASGFTFDDYAMHWVRQAPGKGLEWVSGISGSGGSTYYADSVKGRFTISRDNAKNSLYLQMNSLRAEDTALYYCAKSYQSDEDAFDIWGQGTMVTVSS
VL: DIQMTQSPASLPTPVGDRVTITCRASQYIQGFLNWYQQKPGKAPKLLIYDASNLETGVPSRFSGSGSGTDFTLTISSLQPEDFATYYCQQSYSTPQTFGQGTKVDIK
B1: the koff in assay [1] amounted to 0.00473 s⁻¹; in assay [2] it was 0.00083 s⁻¹.
